From article PMC10966104

How the values were obtained:
[1] = biological target: baseplate hub gp15 of cyanophage A-1(L) (cyanophage A-1(L)); test: cryo-EM structure; intact A-1(L) particles purified from infected Anabaena sp. PCC 7120, in SM buffer (50 mM Tris-HCl pH 7.5, 10 mM MgSO4, 100 mM NaCl); local reconstructions of portal, gp5-neck fiber, gp7-terminator, sheath-tube, baseplate and tail fibers
[2] = biological target: baseplate wedge protein gp32 of cyanophage A-1(L) (cyanophage A-1(L)); test: as above
[3] = biological target: central spike gp25 of cyanophage A-1(L) (cyanophage A-1(L)); test: as above
[4] = biological target: long tail fiber gp34 of cyanophage A-1(L) (cyanophage A-1(L)); test: as above
[5] = biological target: neck fiber protein gp82 of cyanophage A-1(L), in the virion (cyanophage A-1(L)); test: as above
[6] = biological target: neck protein gp5 of cyanophage A-1(L) (cyanophage A-1(L)); test: as above
[7] = biological target: neck protein gp7 of cyanophage A-1(L) (cyanophage A-1(L)); test: as above
[8] = biological target: portal protein gp2 of cyanophage A-1(L) (cyanophage A-1(L)); test: as above
[9] = biological target: recombinant gp82 of the neck fiber gp82-gp81-gp80-His6 (cyanophage A-1(L)); test: SEC-MALS; recombinant neck fiber gp82-gp81-gp80-His6, 1 mg/mL, 100 uL, Superdex 200 Increase 10/300 GL in binding buffer
[10] = biological target: recombinant gp80-His6 of the neck fiber (cyanophage A-1(L)); test: as above
[11] = biological target: sheath initiator gp30 of cyanophage A-1(L) (cyanophage A-1(L)); test: cryo-EM structure; intact A-1(L) particles purified from infected Anabaena sp. PCC 7120, in SM buffer (50 mM Tris-HCl pH 7.5, 10 mM MgSO4, 100 mM NaCl); local reconstructions of portal, gp5-neck fiber, gp7-terminator, sheath-tube, baseplate and tail fibers
[12] = biological target: short tail fiber gp33 of cyanophage A-1(L) (cyanophage A-1(L)); test: as above
[13] = biological target: tail sheath protein gp9 of cyanophage A-1(L) (cyanophage A-1(L)); test: as above
[14] = biological target: tail terminator gp8 of cyanophage A-1(L) (cyanophage A-1(L)); test: as above
[15] = biological target: tail tube protein gp10 of cyanophage A-1(L) (cyanophage A-1(L)); test: as above
[16] = biological target: tape measure protein gp13 of cyanophage A-1(L) (cyanophage A-1(L)); test: as above
[17] = biological target: tube initiator gp18 of cyanophage A-1(L) (cyanophage A-1(L)); test: as above

## baseplate hub gp15 of cyanophage A-1(L) (natural protein)
[1]
  stoichiometry N: 3 subunits

## baseplate wedge protein gp31 of cyanophage A-1(L) (natural protein)
[2]
  stoichiometry N (gp31 per gp32): 2

## central spike gp25 of cyanophage A-1(L) (natural protein)
[3]
  stoichiometry N: 3 subunits

## long tail fiber gp34 of cyanophage A-1(L) (natural protein)
[4]
  stoichiometry N: 3 subunits

## neck fiber protein gp82 of cyanophage A-1(L), in the virion (natural protein)
[5]
  stoichiometry N: 3 subunits

## neck protein gp5 of cyanophage A-1(L) (natural protein)
[6]
  stoichiometry N: 15 subunits

## neck protein gp7 of cyanophage A-1(L) (natural protein)
[7]
  stoichiometry N: 6 subunits

## portal protein gp2 of cyanophage A-1(L) (natural protein)
[8]
  stoichiometry N: 12 subunits

## recombinant gp81 of the neck fiber (natural protein)
[9]
  stoichiometry N (gp81 trimers per gp82 trimer): 14
[10]
  stoichiometry N (gp81 trimers per gp80 trimer): 14

## sheath initiator gp30 of cyanophage A-1(L) (natural protein)
[11]
  stoichiometry N: 6 subunits

## short tail fiber gp33 of cyanophage A-1(L) (natural protein)
[12]
  stoichiometry N: 3 subunits

## tail sheath protein gp9 of cyanophage A-1(L) (natural protein)
[13]
  stoichiometry N (subunits in a ring): 6

## tail terminator gp8 of cyanophage A-1(L) (natural protein)
[14]
  stoichiometry N: 6 subunits

## tail tube protein gp10 of cyanophage A-1(L) (natural protein)
[15]
  stoichiometry N (subunits in a ring): 6

## tape measure protein gp13 of cyanophage A-1(L) (natural protein)
[16]
  stoichiometry N: 6

## tube initiator gp18 of cyanophage A-1(L) (natural protein)
[17]
  stoichiometry N: 6 subunits
